For assay [1], the target named is iC3b (UniProt P01024). Briefly: SPR; C3b deposited on a CM5 chip (amine-coupled seed, then convertase-mediated deposition to about 5000 RU), iC3b and C3dg made from it on the chip; αI domains injected as dilution series, 120 s; Biacore T200, 25 °C; HBST (10 mM HEPES, 150 mM NaCl, 0.005% Tween-20, pH 7.4) with 1 mM MgCl2; Langmuir 1:1 fit, KD calculated.
Assay [2] addresses iC3b (UniProt P01024). In words: SPR; competitive: αI domains at 5 µM preincubated with simvastatin (3-100 µM), injected over immobilised iC3b or ICAM-1; HBST with 1 mM MgCl2 and 5% DMSO; signal as percent of the non-inhibited signal. On the technique in general: In SPR one partner is held on a chip, and binding of the other changes the refractive index at the surface.

Numbering of substitutions follows the chain as printed. Names and notes keep the numbering of the source.

B1: CR4 αXI domain, wild type (WT) (domain or fragment)
chain: QEQDIVFLIDGSGSISSRNFATMMNFVRAVISQFQRPSTQFSLMQFSNKFQTHFTFEEFRRSSNPLSLLASVHQLQGFTYTATAIQNVVHRLFHASYGARRDAAKILIVITDGKKEGDSLDYKDVIPMADAAGIIRYAIGVGLAFQNRNSWKELNDIASKPSQEHIFKVEDFDALKDIQNQLKEKIFAI
Regarding B1, the dissociation constant (Kd) (as a rule, the free concentration of one partner at which half of the binding sites on the other are occupied at equilibrium, for simple one-to-one binding) with iC3b [1] is 33 µM.

B2: CR4 αXI domain, high-affinity (HA) variant p.I333G (domain or fragment)
chain: B1 chain with I186G
In the assay with iC3b [2], B2 returned a residual binding activity with simvastatin (percent of the non-inhibited signal) of 63%. Further, in the assay with iC3b [1], the dissociation constant Kd is 2.6 µM.

The values are drawn from publication PMC11853025.
